Measurements from the DeepSol protein solubility set.

Test: soluble on expression in E. coli; label from the status in PepcDB or PDB records

Soluble on expression in E. coli, not soluble:
MGSDKIHHHHHHMITCQMIHKTYAAGHGERKVLRGLDFAISRGEHVGFLGRNGAGKTTLIKLLGGVEFPTAGTIRRRMTVSWPLGFGGGFQGSLTGYDNARFIARIYGMSYRDIADFVEDFTELGRQLRAPVKTYSQGMRARLAFALSMAIEFDCYLVDEVILVGDHRFHEKCRLELFGKRSDRALILASHNAALIREHCTRAMVLHDGRGTMHDDIDLALRHYEAL
MGSDKIHHHHHHMITTARQLKDLIRNMSKKKSADAQILMRNYMMERFLERISLSEYKNQFILKGGMLVAAMVGLDARATMDLDATIKGTNVSVEDVEMIISQIISIPLDDGVSFRVKRISEIMEEADYPGVRVSMETKFDGVITPLKIDISTGDVITPREIKYKFNLMLEDRTIEVWAYNLETVLAEKLETVVSRNVTNTRMRDFYDIYILQKLYGEQLQKQVLWTALVATAKKRGTLDLIEAEDIREIFDEIESSPVMETLWKTYQKNYSYAADISWHAIVKSICALYGSILENMYNT
MGSDKIHHHHHHMITTSNITMQFGVKPLFEKVSVKFGEGNRYGLIGANGSGKSTFMKILGGDLEQTAGEVAIENGLRLGKLRQDQFGYEDQRVIDVVMMGHTEMWAAMSERDAIYANLEATEDDYMRAADLEAKFAEYDGYTAEARAGELLMGVGIPVEQHFGPMSEVAPGWKLRVLLAQALFSNPDILLLDEPTNNLDINTIRWLEHVLNERNSTMIIISHDRHFLNSVCTHMADLDYNTIRIYPGNYDDYMIASAQARERQLSSNSKAKERIQELQEFVARFSANKSKARQATSRLKQVDKLKSEMVEVKPSSRQNPFIRFEMDDKFKLHRQAVEVEGLSKAYDNKVLFKDLNLILEAGARLAIIGPNGAGKTSLIKLLAGAFEPAYAEGLTADRGTIKWAEKAQIGYFAQDHEADFDSDATLTEWMREWGQEGDDEQVIRGTLGRLLFGGDEVGKPVRVLSGGEKGRMLYGKLILQKPNVMIMDEPTNHMDMESIESLNMALEKYKGTLIFVSHDRQFVSSLATHVLELDGKGGYDYYTGNYEDYLASKGLE
MGSDKIHHHHHHMITVNDMSMQFSDRKLYSDVNLKFTPGNCYGIIGANGAGKSTFLKILEGKLQPTSGNVSISPNERMSSLNQDHYAFEEFTVMNTVIQGYKKLYEVMQAKDALYAKADFTEEDGMKAANLEAEFAEMDGWNAEAEASQLLQQLGIDESLHDSKMSELTEGQRIKVLLGQALFGKPDILILDEPTNGLDPKSISWLEDFLADFPNTVIVVSHDRHFLNSVCTMMCDVDFGKIELFVGNYDFWMESSALAKRLRENANAKKEEQIKELQEFVARFSANASKSKQATSRKKQLDKITLDDIKPSSRKYPFIRFEPARELGNDLVRVDKVSKSIDGVKILDNITFTVRPGEKAAILSQNDLATTVLMQILAGEMEPDSGSVTWGQTTERSYIPRDINSYFEDDRFDILEWLRQYAPKEESDNTFLRGFLGKMLFSGEDVLKNVTKLSGGEKVRCMISKTMLSKANVLILDDPTNHLDLESITALNEGLTSYKSSIIMTSHDHEFIQTIADHIIEVSDKGSVDRAETTYDEFLNHDAIQEQVSKLY
MGSDKIHHHHHHMIVGIDVGGTNTDVAVLEGNVFQIKSFRTSEVIQNLSDFIEKNFGDAEAVGIGVAVWFVDGKPVKAPNLPAIPKMELDVPFIVDNDANCFAYFAAKTLNFRHLLAVTVGTGIGGGIVADGKIYRGRGAAGEIGHTFVGGRKRCRCGGEGHLEAYFGGWAMENVKELIDTGEIYSTAEFALFCRSLANAVMLLNPEAIALGGRIGGRLDERPLAEKVNRYLPEEIDVVVRVVKDDYAVAKGAALLALDTISQNLP
MGSDKIHHHHHHMKAAVYEGKKAIKMTELPTPKAGPNDVVIQNIYAGICGSDVAVYNHGSGTGHKIETDHEFGHEAVSKVVEVGDDVHDFKIGDRVYPYPLLARGDPSRAGSMGGFSEYILIPNAKLNRQLYLVPKEIDNHVAAMIEPFTVGTRAAKQTRPDKNDNAIVYGTGTIGMAAAVALKHLGVKQVMLVDLSDYRLNVAKELGFLTVNSSRDDVRSQAIEAFGKAEYSLHGEAPDTQIFLDAAGHNSILEDFLQFGPVGSRFVTVGVNNSKPQIDFLELIFGSKSVGGSGGYRPEDVQTVFEIMKERQSDLRKMVSQEFDWQDLEKGIQTATDTTISEKVLINYHL
MGSDKIHHHHHHMKADLHVHTCLSPCADLLMIPPVVERASGDVQILGIVDHNSAKNVPAFLKMKKLVVPGIEIQTVEDVHVLGFFSDIESALKVTKIVYEHLPSVKHDHEKMGYQLFVDEKGNYTGYEDVPLGFPSDLTLSQAVELIRSFGGIPVYAHVEKRFGVLYQLGFFPDLEIPVAEVVSREGKENAQKKNLRVIVTSDAHFPSDIGRRYIDISGAPNSPEEVLKKILNSEYTLGGVLNW
MGSDKIHHHHHHMKAILIDDDQPTLFILNKMLAKIPRVEIVGEFLNAGDAYHFLKHNPVELAFVDIKMPGESGLDFAWRSLAEFPDLYVVFLTAYKDYAVEAFEVQAFDYIVKPIQQERLERTVSRVLQRKAAGISSRNTVEQAKVLFVYCLGGLDLRNTNDDFVMISSSKGQELFAYLLVHRERLTSKWRIMEDVFQGMSPQNAETYLNTTVYKLRKVLEQYGKRSAIVVASESYVMEIKDFYIDFIEFENKVRTLPSITEANLQEAIQTFHLFAGELFGDKDYQWSLAEKERLGDIYCSFAKKLGRYLLENQNSALALQVFKKLVAINELDEESHCFLLQVYAAQNDLPSLIRHYDRYVQLLQRELAISPSNRTAQLFLSLKKSLL
MGSDKIHHHHHHMKAKHTDLEKLEQLYKESGNQLVVLYGRRGCQKEELIKEFCDGKKFFYYRCRQASPEHQLEMMGEEISRQYKVSLSRQTYEEYFARIKSGDPSKLVVIIDEAQFVAKRDTSFMEAVAKLKKHKLYPGPVLIILATSSTVWATQEASEQFKGAEMKLESLNFLEVVRHFESLPVAEIVRIYGAIGGVPAYLDKWDAAKSFKENICRLVLTPSGALYGEADAVISSELRELSAYSTILAAIARGENKLNDIFHATGFSRAKISVYLKNLATFNIVEKVVSFETGGWENAKKGVYQIKDTFVNFWFKFVYPNMSNLYLLSPEEFYDTYIEKELDAYLERYFREVCTEYLLILNQMGQLPFTIKRVGTWIGKTGRIDIVAQSEDRRSIIGFCNWDKPMMTMDMCENMAMAMDQARLTSDDYYLFSATDFEPALQSYVVRDPRFKLINMNEL
MGSDKIHHHHHHMKAQSALSVKEANFKAMTTFIYTQGSATKQMFEHELGLSLPTITQNLRAMEADGLIVKGEMQKSTGGRKAQIYEFAAHSSVAIGVRIQTTRITAIAIDLNGKSVATRQRTLPYRNNDAYYQRMNDIINGFAQELAKQGSTVLGVAFCMQGIVSADGQSITFGKIMNNTGLKLSELSHGLNYPSLMIHDSDASAMAELWFDHNLKDAVCIYLERRPGGAVIVDGSLYQGPNQCNGSIEHMTLIPGGNTCYCGQQGCMDTYCSPETLMEDGESLPGFFSVLEQGEQEHRKRFSQWLDYVALAVTNIRSVLAGDVIISGEAAQYLDDDDMAGLRERVVEHTPFGTTDFTLRKGMALDHQDIIGAALRFVEPYVRELCDM
MGSDKIHHHHHHMKDVQNEKDPRMVPLKKVGIKDLHWPLKVILKEDGYQSTVAQISCSVDLHREKRGIHMSRFIEVLNKLEVITPQIFEEILDDLIEIMEAKRAHLEIHFPYFIWKESPVSRKKSPLKVDCFVEAEKEKNFSFKIGVRTPVHTLCPCSKEISDYGAHNQRAFVEITVKTRKFIWFEDLVEIAEKNASSPLYTLLKRPDEKFVTEKAYENPRFVEDVARDVALELEKDPRITWYRVYVESMESIHNHNAFACVEKGDFVLEG
MGSDKIHHHHHHMKESGNFEFDDVQGLLRFGYGKLADTCFMLLKIADASAARQWLSTAPVSSAIAIHPPPDTALQIAFSVQGLRALGIDESIIDGFSDEFVHGMTRNENCSRRLGDIGHNAPKYWKWGEGADVPHILLLLYARKGGLDAWKATVEGEYFSQAFQLLQYLPTSDMGRTDPFGFEDGISQPAIDWADRHDTDSHANDRYTNLLAAGEMVLGYPNEYGQYTARPLIDLQKDRFAVNLPDAKDDPARKDFGRNGTYLVLRQLEQNVPGFWQFLDKVSDSIPEKRERLAASMVGRERNGTPLIAEHIPGILPKDHGNHFTYDLDPKGNHCPVSAHVRRANPRTGDLPTAVTGTGAIALINRLVKILGFGQKPEEDLIASSRFHRLLRRGRSYGPVLAPGDAVKPDAPAAERGLQFICLVANIGRQFEFVQNAWIVNGKFGGLQEEPDPLLGNREPMINGNSTDHFNRPTSSGSMQKTCHLPQFTTVLGGGYFFMPGLRALKYISALPANGNGGSS
MGSDKIHHHHHHMKEVKDFYDKWEPEDFPNYIKLLMNFADELIFEEISLLLKKFENKKDFLVLDCGCGFGAFYNLTKDFNTIYLDISLNLLKRFKLKERKICANILHLPFKDNTFDLVLCINVLEHVNYLKALNEIRRILKNKGKLIVVVVNKDSLIKEEIFNDFKIFHKPLSIKDFEIDGFKIVYSNSVYFLPSIFKISPPIILSKIIEYWKPVDKKLSKIFKNKGQFLIIEMVKE
MGSDKIHHHHHHMKGFITNIQRMSIHDGPGIRSTIFLKGCNLRCKWCHNPETWSMKPQLQYIEDKCIHCFSCITVCEYEVLFIDSNRLSIHRERCTDCGKCTERCTSGALSWIGKEVDSSDIIHEILQDLIYYQKSGGGITLSGGEPLQQKDFALDILQKCREHRIHTAVETNLLTDVNTLEAFLPWVDLWMCDFKMADDTLHRKWTGHSNVPIIKNLEFLAKQAVPLTIRTPVIPNVNDSEEAIESICRFIRQLPNQPAYELLGFHSLGFVKFENLGMKNPLSNSAFLKKGQLQKLKEILIRYNLNNNKK
MGSDKIHHHHHHMKGMDIMNSAMILEISWFQEHGIMRRAVNRGLARKSSHPSRIGIDEKYYGKHHRYITLVFNHDDHSVEFISLDRKQESLDLYYRSIGEEASGSIEAAPMDMWDPFIVSTKSNVTDAESKIVFDRFHVMKHMNMALDDVRWMESRMAEYKEMFRKTRCLWLYSPENLPDKYGERYEILKESDLKTARVYAIKENLRNLWNCSGEDEARSF
MGSDKIHHHHHHMKIAFDAKRITHNATGLGNYSRFVVNSLSASFPEHTYQLYTPGKGKEALRKRIEERPSVSFHYPEGRFDKLFPSLWRTSGLTATLRKEHVDLFHGLSNEIPMNLKQNGIPAVVTIHDLIFLRYPQLYKPIDRSIYTYKFKQACLRSDKIIAISRQTMRDIRDFFHIPESKIEVVYQGCDPIFGQAVQEDVKSSVREKYQINGPYILYVGSIEERKNLLLLVKALKKLKEDISVIAIGKHTPYTDTVETYIRENNLSGRVHILTHIPFNELAAFYQMATLFVYPSFFEGFGIPILEAQLAGIPVIAATGSCLEEAGGPSALYTDPRNEQELRGLIESVLNEPKLAESMRSGGRENIRRFMPDVLAAHFMRVYENISRS
MGSDKIHHHHHHMKIAIASGKGGTGKTTVAVNFAQVLAAAGQEVTLLDCDVEEPNVHLFLHPEFDSVSAVETTIPQVDEEKCTGCRVCAEVCEYHALAVLGKNVLVFPELCHACGACVRFCPEEAIVEIPREIGTIRKGRKGKIRLIEGRLNVGEVMSPAVIERVKKIGLDGKIGIIDAPPGTSCPVIAAVRDTDGVLLVTEPTPFGLYDLKLAVGMVRLLGIPCAVAINRSDLGEKELWRYCSDERIPIILEIPNDRRIAEAYSRGRTIIEELPEYREKFLQGWQALLESCSIA
